In patent US20210277146A1 (BEIJING DONGFANG BIOTECH, published 2021):

Columns and labels:
PCSK9-His [1] = biological target: T1, PCSK9-His (UniProt Q8NBP7 31-692); test: ELISA, PCSK9-His coated, complete antibody titrated, anti-human IgG-HRP
T1 construct: also called antigen PCSK9-His; Proprotein Convertase Subtilisin/Kexin Type 9; not shown: His tag
Experimental: Coating PCSK9-His (300 ng/well/100 μl) by 0.01M PBS buffer at pH 7.2 overnight at 4° C., washing three times with PBST (1‰ Tween 20) of 300 μl/well, further adding PBST-4% milk, and blocking for one hour at 37° C.; adding complete antibodies DFSK9-1, DFSK9-12, DFSK9-13, DFSK9-14, DFSK9-15, DFSK9-16, DFSK9-17, DFSK9-18, DFSK9-19, DFSK9-20 and DFSK9-21 of different dilution degrees; the highest concentration of the 11 complete antibodies is 50 μg/ml, diluting at a five-time gradient, diluting for eight gradients for each complete antibody, and incubating for one hour at 37° C.; washing 5 times with PBST of 300 μl/well, further adding a goat-anti-human IgG-HRP secondary antibody diluted by PBST-4% milk at a ratio of 1:5000, and incubating for one hour at 37° C.; washing 5 times with PBST of 300 μl/well, developing by using a Tetramethylbenzidine (TMB) developing kit (100 μl/well), developing for 10 minutes at a room temperature, and terminating developing with 2M H₂SO₄ (50 μl/well); reading numbers by using a microplate reader at wavelengths of 450 nm and 630 nm; analyzing data and drawing pictures by using software GraphPad Prism 5Demo, and results are shown in FIG. 8 and table 2.

PCSK9 [2] = biological target: T2, PCSK9 (UniProt Q8NBP7 31-692, limits assumed); test: SPR BIAcore X100, antibody captured by goat anti-human IgG on CM5, PCSK9 as analyte
T2 construct: Printed only as 'PCSK9' in Embodiments 5.4 and 6; also called Proprotein Convertase Subtilisin/Kexin Type 9; PCSK9 solution

PCSK9-His [3] = biological target: T1, PCSK9-His; test: competition ELISA, LDLR-Fc coated, PCSK9-His 2 ug/ml, antibody titrated, anti-His-HRP
Experimental: Coating LDLR-Fc (100 ng/well/100 μl) by 0.01M PBS buffer at pH 7.2 overnight at 4° C., washing three times with PBST, further adding PBST-4% milk, and blocking for one hour at 37° C.; further adding 2 μg/ml PCSK9-His (100 μlwell) diluted by PBST-4% milk, and incubating to one hour at 37° C.; adding complete antibodies DFSK9-1, DFSK9-12, DFSK9-13, DFSK9-14, DFSK9-15, DFSK9-16, DFSK9-17, DFSK9-18, DFSK9-19, DFSK9-20 and DFSK9-21 of different dilution degrees; the highest concentration of the 11 complete antibodies is 100 μg/ml, diluting at a five-time gradient, diluting for eight gradients for each complete antibody, and incubating for 2 hours at 37° C.; washing 5 times with PBST, further adding a mouse-anti His IgG-HRP secondary antibody diluted by PBST-4% milk, and incubating for 1 hour at 37° C.; developing by using the TMB developing kit (100 μl/well), developing for 10 minutes at the room temperature, and terminating developing with 2M H₂SO₄ (50 μl/well); reading numbers by using the microplate reader at 450 nm and 630 nm; analyzing data and drawing pictures by using software GraphPad Prism 5 Demo, and results are shown in FIG. 9 and table 3.

PCSK9 [4] = biological target: T2, PCSK9; test: cell-based or functional assay

T2 sequence (Q8NBP7 31-692 limits assumed): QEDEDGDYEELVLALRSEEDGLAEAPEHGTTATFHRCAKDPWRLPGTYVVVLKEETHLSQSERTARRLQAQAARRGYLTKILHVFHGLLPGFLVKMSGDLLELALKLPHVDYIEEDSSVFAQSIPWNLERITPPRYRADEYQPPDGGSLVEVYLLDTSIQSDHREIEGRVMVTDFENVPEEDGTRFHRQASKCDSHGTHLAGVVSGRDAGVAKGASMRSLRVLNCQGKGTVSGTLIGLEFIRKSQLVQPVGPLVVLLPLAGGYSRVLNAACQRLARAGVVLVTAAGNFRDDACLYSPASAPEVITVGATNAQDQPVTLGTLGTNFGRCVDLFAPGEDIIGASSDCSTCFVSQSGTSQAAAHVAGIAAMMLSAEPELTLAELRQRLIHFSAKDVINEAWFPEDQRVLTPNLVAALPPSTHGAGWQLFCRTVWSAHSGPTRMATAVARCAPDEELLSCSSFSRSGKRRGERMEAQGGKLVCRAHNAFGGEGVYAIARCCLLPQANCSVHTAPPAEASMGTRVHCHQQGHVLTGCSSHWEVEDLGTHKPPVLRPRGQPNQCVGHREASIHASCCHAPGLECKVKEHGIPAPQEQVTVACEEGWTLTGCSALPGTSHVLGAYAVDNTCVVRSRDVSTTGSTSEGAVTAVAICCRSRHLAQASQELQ
T1 sequence (Q8NBP7 31-692 limits assumed): as above

Row | Binder | EC50 (PCSK9-His [1]) | Kd (PCSK9 [2]) | koff (PCSK9 [2]) | kon (PCSK9 [2]) | IC50 (PCSK9-His [3]) | EC50 value of bioactivity testing (BODIPY-LDL uptake in HepG2 cells, RFU) (PCSK9 [4])
1 | DFSK9-1 complete antibody (antibody, V domains shown) VH: QVQLVQSGAEVKRPGASVKVSCKASGGTFTNNAISWVRQAPGQGLEWMGRIIPMFGMANYAQKLQGRGTMTTDPSTSTAYMELRSLRSDDTAVYYCAREGIPMIWGQGTTVTVSS VL: DIQMTQSPSSLSASVGDRVTITCRASQSIDNRLTWYQQKPGKAPKLLIYDASSRQSGVPSRFSGSGSGTDFTLTISSLQPEDFATYYCQQPENDPTTFGQGTKVEIK | 0.171 µg/mL | 0.175 nM | 9.19e-05 s⁻¹ | 518000 M⁻¹ s⁻¹ | 0.847 µg/mL | –
2 | DFSK9-13 complete antibody (antibody, V domains shown) VH: QVQLVQSGAEVKKPGASVKVSCKASGYSLTSYGISWVRQAPGQGLEWMGWVSFYQGNTNYAQKLQGRGTMTTDPSTSTAYMELRSLRSDDTAVYYCARGYGMTVWGQGTTVTVSS VL: DIQMTQSPSSLSASVGDRVTITCRASQDVDSWLTWYQQKPGKAPKLLIYGASNLASGVPSRFSGSGSGTDFTLTISSLQPEDFATYYCQQDSKIPLTFGQGTKVEIK | 0.0835 µg/mL | 0.052 nM | 2.99e-05 s⁻¹ | 575000 M⁻¹ s⁻¹ | 0.383 µg/mL | 29.6 nM
3 | DFSK9-18 complete antibody (antibody, V domains shown) VH: QVQLVQSGAEVKKPGASVKVSCKASGYTVTSYGISWVRQAPGQGLEWMGWVSFYNGNSNYAQKLQGRGTMTTDPSTSTAYMELRSLRSDDTAVYYCARGYSLDVWGQGTTVTVSS VL: DIQMTQSPSSLSASVGDRVTITCRASQNINSWLNWYQQKPGKAPKLLIYGASSRQSGVPSRFSGSGSGTDFTLTISSLQPEDFATYYCQQWFDVPTTFGQGTKVEIK | 0.0339 µg/mL | 0.00389 nM | 1.99e-06 s⁻¹ | 512000 M⁻¹ s⁻¹ | 0.107 µg/mL | 23.9 nM
4 | DFSK9-20 complete antibody (antibody, V domains shown) VH: QVQLVQSGAEVKKPGASVKVSCKASGYSLTSYGISWVRQAPGQGLEWMGWVSFYNGNSNYAQKLQGRGTMTTDPSTSTAYMELRSLRSDDTAVYYCARGFGMDRWGQGTTVTVSS VL: DIQMTQSPSSLSASVGDRVTITCRASQNINNWLNWYQQKPGKAPKLLIYGASTRPTGVPSRFSGSGSGTDFTLTISSLQPEDFATYYCQQWDDTPNTFGQGTKVEIK | 0.0337 µg/mL | 0.0157 nM | 1.45e-05 s⁻¹ | 925000 M⁻¹ s⁻¹ | 0.216 µg/mL | 17.9 nM
5 | DFSK9-12 complete antibody (antibody, V domains shown) VH: QVQLVQSGAEVKKPGASVKVSCKASGYTVTSYGISWVRQAPGQGLEWMGWLSFYNGNTNYAQKLQGRGTMTTDPSTSTAYMELRSLRSDDTAVYYCARGYSLDVWGQGTTVTVSS VL: DIQMTQSPSSLSASVGDRVTITCRASQSVRNWLDWYQQKPGKAPKLLIYGASTLESGVPSRFSGSGSGTDFTLTISSLQPEDFATYYCQQDNDIPLTFGQGTKVEIK | 0.0646 µg/mL | 0.119 nM | 4.98e-05 s⁻¹ | 418000 M⁻¹ s⁻¹ | 0.266 µg/mL | –
6 | DFSK9-14 complete antibody (antibody, V domains shown) VH: QVQLVQSGAEVKKPGASVKVSCKASGYSLTSYGISWVRQAPGQGLEWMGWVSFYNGQTNYAQKLQGRGTMTTDPSTSTAYMELRSLRSDDTAVYYCARGYGMSIWGQGTTVTVSS VL: DIQMTQSPSSLSASVGDRVTITCRASQNINSWLNWYQQKPGKAPKLLIYGASSRQSGVPSRFSGSGSGTDFTLTISSLQPEDFATYYCQQWFDVPTTFGQGTKVEIK | 0.0422 µg/mL | 0.0293 nM | 7.9e-05 s⁻¹ | 2.7e+06 M⁻¹ s⁻¹ | 0.146 µg/mL | 16.6 nM
7 | DFSK9-16 complete antibody (antibody, V domains shown) VH: QVQLVQSGAEVKKPGASVKVSCKASGYTVTSYGISWVRQAPGQGLEWMGWVSFYQGNTNYAQKLQGRGTMTTDPSTSTAYMELRSLRSDDTAVYYCARGFGMDRWGQGTTVTVSS VL: DIQMTQSPSSLSASVGDRVTITCRASQNINSWLNWYQQKPGKAPKLLIYGASSRQSGVPSRFSGSGSGTDFTLTISSLQPEDFATYYCQQWFDVPTTFGQGTKVEIK | 0.0562 µg/mL | 0.0461 nM | 5.61e-05 s⁻¹ | 1.22e+06 M⁻¹ s⁻¹ | 0.282 µg/mL | 23.8 nM
8 | DFSK9-15 complete antibody (antibody, V domains shown) VH: QVQLVQSGAEVKKPGASVKVSCKASGYTVTSYGISWVRQAPGQGLEWMGWVSFYNGQTNYAQKLQGRGTMTTDPSTSTAYMELRSLRSDDTAVYYCARGYSLDVWGQGTTVTVSS VL: DIQMTQSPSSLSASVGDRVTITCRASQNINNWLNWYQQKPGKAPKLLIYGASTRPTGVPSRFSGSGSGTDFTLTISSLQPEDFATYYCQQWDDTPNTFGQGTKVEIK | 0.0397 µg/mL | 0.00875 nM | 4.75e-06 s⁻¹ | 542000 M⁻¹ s⁻¹ | 0.114 µg/mL | 15.3 nM
9 | DFSK9-17 complete antibody (antibody, V domains shown) VH: QVQLVQSGAEVKKPGASVKVSCKASGYTVTSYGISWVRQAPGQGLEWMGWVSFYNGNSNYAQKLQGRGTMTTDPSTSTAYMELRSLRSDDTAVYYCARGYSLDVWGQGTTVTVSS VL: DIQMTQSPSSLSASVGDRVTITCRASQNINNWLNWYQQKPGKAPKLLIYGASTRPTGVPSRFSGSGSGTDFTLTISSLQPEDFATYYCQQWDDTPNTFGQGTKVEIK | 0.0314 µg/mL | 0.00156 nM | 1.84e-06 s⁻¹ | 1.18e+06 M⁻¹ s⁻¹ | 0.089 µg/mL | 18.5 nM
10 | DFSK9-19 complete antibody (antibody, V domains shown) VH: QVQLVQSGAEVKKPGASVKVSCKASGYSLTSYGISWVRQAPGQGLEWMGWVTFYNGNTNYAQKLQGRGTMTTDPSTSTAYMELRSLRSDDTAVYYCARGFGLSVWGQGTTVTVSS VL: DIQMTQSPSSLSASVGDRVTITCRASQNVNNWLNWYQQKPGKAPKLLIYAASTRETGVPSRFSGSGSGTDFTLTISSLQPEDFATYYCQQDNDMPLTFGQGTKVEIK | 0.0832 µg/mL | 0.186 nM | 7.34e-05 s⁻¹ | 395000 M⁻¹ s⁻¹ | 0.533 µg/mL | –
11 | DFSK9-21 complete antibody (antibody, V domains shown, also called DF5K9-21) VH: QVQLVQSGAEVKKPGASVKVSCKASGYSLTSYGISWVRQAPGQGLEWMGWVSFYNGQTNYAQKLQGRGTMTTDPSTSTAYMELRSLRSDDTAVYYCARGFGMDRWGQGTTVTVSS VL: DIQMTQSPSSLSASVGDRVTITCRASQNINNWLNWYQQKPGKAPKLLIYGASTRPTGVPSRFSGSGSGTDFTLTISSLQPEDFATYYCQQWDDTPNTFGQGTKVEIK | 0.0282 µg/mL | 0.00716 nM | 4.24e-06 s⁻¹ | 592000 M⁻¹ s⁻¹ | 0.161 µg/mL | 20.3 nM
